Experiments:
[1] = molecular target: erbB2 peptide (Homo sapiens) (UniProt P04626); conditions: cited from earlier work
[2] = molecular target: hGrb7-RA-PH domains (residues 103-341), hexa-histidine fusion (human, UniProt Q14451 103-341); assay: ITC
Chain of hGrb7-RA-PH domains (residues 103-341), hexa-histidine fusion (Q14451 103-341): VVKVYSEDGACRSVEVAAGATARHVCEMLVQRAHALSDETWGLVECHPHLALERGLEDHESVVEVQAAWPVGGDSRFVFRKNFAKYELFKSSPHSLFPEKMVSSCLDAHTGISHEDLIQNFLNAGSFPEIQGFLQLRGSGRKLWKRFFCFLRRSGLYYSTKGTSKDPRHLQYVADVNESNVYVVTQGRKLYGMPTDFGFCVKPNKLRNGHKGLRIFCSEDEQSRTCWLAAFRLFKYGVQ

Chain of Grb7 SH2 (Q14451 428-530): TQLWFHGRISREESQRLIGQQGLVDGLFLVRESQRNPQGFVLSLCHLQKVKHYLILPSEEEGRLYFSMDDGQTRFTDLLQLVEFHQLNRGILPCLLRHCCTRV

Row | Kd [2] [nM] | Molecule | Kd [1] [nM]
1 |  | Grb7 SH2 (from UniProt Q14451) | 2280
2 | 2800 | human Grb7-SH2 domain (domain or fragment, UniProt Q14451 431-527, looked up) WFHGRISREESQRLIGQQGLVDGLFLVRESQRNPQGFVLSLCHLQKVKHYLILPSEEEGRLYFSMDDGQTRFTDLLQLVEFHQLNRGILPCLLRHCC | 

— article PMC4136552 (Journal of molecular recognition : JMR, 2011)
